In article PMC10855774, “Role of Spexin in White Adipose Tissue Thermogenesis under Basal and Cold-Stimulated Conditions” (International Journal of Molecular Sciences, 2024):

How the values were obtained:
3T3-L1 adipocytes = conditions: in vitro; cited from earlier work
Source text: (§1) Beige adipocytes may be generated through two different mechanisms: adipogenesis, de novo, from precursor stem cells, and the transdifferentiation process, which involves the conversion/reprogramming of white adipocytes. Regarding the former, different studies have shown the presence of different adipocyte precursors that have different thermogenic capacities when differentiated in vitro [22]. Other studies have observed that PDGFRα+ cells are bipotential precursors, being able to differentiate into either white or beige adipocytes depending on the stimulus. Then, only PDGFRα+ and EBF2+ cell ...

preadipocytes = conditions: cited from earlier work
Source text: as §1

cox8b = cox8b mRNA expression in AT depots (qRT-PCR); type: in vivo, mice; conditions: cold, SPX-C vs. CTR-C, C × S p < 0.001
Procedure: (§2) Normal adult male C57BL/6 mice (four months of age) were kept in a temperature-controlled environment (20–22 °C and a fixed 12 h light/12 h dark cycle; lights on at 07:00 h) and fed ad libitum with Purina commercial rat/mouse chow (Ganave, Buenos Aires, Argentina, L0723/1). Mice were injected with SPX or PBS (29 µg/kg/day, Tocris, Bristol, UK) for ten days (the SPX and CTR groups, respectively). On the third day of the protocol, each group was subdivided into two other groups: one exposed to cold (4 °C, CTR-C and SPX-C, n = 12 mice for each group) and another one housed at RT (CTR and SPX, n = 15 mice for each group) (Figure 1). Food intake and body weight were measured every day. On the experimental day (day 10), the mice were euthanized under non-fasting conditions (08:00 to 09:00 h), and their trunk blood was collected; plasma samples were then frozen (–80 °C) until the metabolite measurement. Inguinal AT (IAT, subcutaneous depot), epididymal AT (EAT, visceral depot), and brown AT (BAT, subcutaneous depot) were aseptically dissected and weighed. These depots were kept at –80 °C for further procedures. Animals were euthanized according to protocols for animal use, in agreement with the NIH guidelines for the care and use of experimental animals. All experiments were approved by our Institutional Animal Care Committee (Approval code: 6NE-2023).
(§3) Total RNA was isolated from cells by the Trizol extraction method (Invitrogen, Life Technology, Waltham, MA, USA) and reverse-transcribed using random primers (250 ng) and RevertAid Reverse Transcriptase (200 U/µL, Thermo Scientific, Waltham, MA, USA). […] The expression levels were analyzed for β-actin (βactin, […] gene), Uncoupling Protein 1 (ucp1), proliferator-activated receptor gamma coactivator-1 alpha (pgc1α), cytochrome-c oxidase subunit 8b (cox8b), galanin receptors 2 and 3 (galr2 and galr3, respectively), and Spexin (spx). […] The relative changes in the expression level of each gene (ΔΔCt) were calculated by the ΔCt method.

[1] = Plasma SPX levels (ELISA) after SPX injection; type: in vivo, mice
Procedure: Circulating glucose (Glu) and triglyceride (Tg) levels were measured using commercial kits (Wiener Lab., Rosario, Argentina). Plasma SPX was measured using a commercial ELISA kit (SPX: Phoenix pharmaceutical EK-023-81).
Supplementary figure 1. SPX levels (ng/ml, EIA Phoe nix pharmaceutical) after intraperitoneal injec tion with SPX (29 µg/kg). or Vehicle in mic e Different time points we r e evaluated after ip. Injections (10, 20, 60, 180, 360 minutes).
Supplementary Figure 2. ucp1 (a), pgc1α (b) and cox8b (c) mRNA expression in B AT. In all case s, t wo -wa y A N O VA wa s performed for factor (S or C) and interaction (S x C) analysis and deta iled below the graph only when s ig n if ica nt .. When interaction is statist icall y s ig n if ica nt , group to gr oup comparison wa s performed by Bonferroni test. ++++ P<0.0001 vs. CTR and ***P<0.001 vs. CTR-C (n=4- 6 m ice per group). […]

ucp1 [2] = assay: ucp1 mRNA expression in AT depots (qRT-PCR); type: in vivo, mice
Procedure: as §2
Total RNA was isolated from cells by the Trizol extraction method (Invitrogen, Life Technology, Waltham, MA, USA) and reverse-transcribed using random primers (250 ng) and RevertAid Reverse Transcriptase (200 U/µL, Thermo Scientific, Waltham, MA, USA). The cDNA (2 μL) was amplified with HOT FIRE Pol EvaGreenqPCR Mix Plus (Solis BioDyne, Tartu, Estonia) containing 0.5 μM of each specific primer, using a Rotor-Gene Q (Qiagen, Hilden, Germany). PCR efficiency was near 1. The expression levels were analyzed for β-actin (βactin, […] gene), Uncoupling Protein 1 (ucp1), proliferator-activated receptor gamma coactivator-1 alpha (pgc1α), cytochrome-c oxidase subunit 8b (cox8b), galanin receptors 2 and 3 (galr2 and galr3, respectively), and Spexin (spx). The designed primers are shown in alphabetical order in Table 1. The relative changes in the expression level of each gene (ΔΔCt) were calculated by the ΔCt method.

ucp1 [3] = assay: UCP1 immunohistochemistry of EAT and IAT; type: in vivo, mice; conditions: SPX groups vs. CTR groups; representative of three experiments
Procedure: as §2, with “6NE-2023). […]” for “6NE-2023).”

spx = spx mRNA expression in AT depots (qRT-PCR); type: in vivo, mice
Procedure: as §2, §3

pgc1α = pgc1α mRNA expression in AT depots (qRT-PCR); type: in vivo, mice
Procedure: as §2, §3

[4] = cold-stimulated conditions (7 days 4 °C), SPX-C vs. CTR-C p < 0.0001

B1: Spexin (peptide, UniProt Q9BT56 27-116, looked up)
Spexin: APQRLLERRNWTPQAMLYLKGAQGRRFISDQSRRKDLSDRPLPERRSPNPQLLTIPEAATILLASLQKSPEDEEKNFDQTRFLEDSLLNW
modifications: Spexin
notes: novel adipokine, a peptide of 14 amino acids of the galanin family; purchased from Tocris
- terminal differentiation of white 3T3-L1 adipocytes (3T3-L1 adipocytes): inhibits
- viability or proliferation of preadipocytes (preadipocytes): does not affect
- cox8b mRNA expression in EAT (cox8b): inhibitory effect of SPX under cold conditions
- cox8b mRNA expression in IAT (cox8b): inhibitory effect of SPX under cold conditions
- cox8b mRNA expression in BAT (cox8b; Supplementary Figure S2c): inhibitory effect of SPX under cold conditions
- plasma SPX levels at end of protocol ([1]; day 10 of SPX 29 µg/kg/day, RT or cold, ELISA, n = 6–7): did not differ between groups
- plasma SPX levels 1 h after SPX injection vs. basal ([1]; mice, single ip. injection SPX 29 µg/kg, 1 h, plasma ELISA): two-fold higher than basal ones
- plasma SPX levels 3 h after SPX injection vs. basal ([1]; mice, single ip. injection SPX 29 µg/kg, 3 h, plasma ELISA): back to basal levels
- SPX half-life in plasma ([1]; mice, single ip. injection SPX 29 µg/kg, plasma ELISA at 10, 20, 60, 180, 360 minutes): short
- ucp1 mRNA expression in BAT (ucp1 [2]; RT and cold, C p < 0.001, Supplementary Figure S2a): increased under cold exposure despite the SPX treatment
- ucp1 mRNA expression in IAT and EAT (ucp1 [2]; RT, SPX vs. CTR): SPX inhibition was also significant, but only when a t-test was performed
- ucp1 mRNA expression in EAT (ucp1 [2]; [4]): ucp1 inhibition
- ucp1 mRNA expression in IAT (ucp1 [2]; [4]): ucp1 inhibition
- UCP1 expression by immunohistochemistry, EAT and IAT (ucp1 [3]): lower than in the CTR groups
- spx mRNA expression in EAT (spx; RT and cold): No changes
- spx mRNA expression in BAT (spx; RT and cold, Supplementary Figure S3): No changes
- spx mRNA expression in IAT (spx; cold conditions, C × S p < 0.001): lower spx expression than CTR mice
- pgc1α mRNA expression in BAT (pgc1α; RT and cold, Supplementary Figure S2b): no changes were observed
- pgc1α mRNA expression in EAT (pgc1α; cold conditions, C p < 0.0001): increased in EAT for both the control and treated groups
- pgc1α mRNA expression in IAT (pgc1α; cold, SPX-C vs. CTR-C, p < 0.001): inhibited due to SPX in cold conditions
